Results on three molecules are retold here after article PMC10673611 (Molecules, 2023).

The target of the test is T1, programmed death ligand 1 (PD-L1) (Homo sapiens, UniProt Q9NZQ7).
T1 construct: human programmed death ligand 1; HEK293 transient, Ni Sepharose and SEC; also called hPD-L1
Kind of test: ELISA; indirect ELISA; MaxiSorp plates coated with protein overnight at 4 °C, blocked with 1% BSA in PBS, ligands diluted in PBS 1 h at RT, detection with anti-IgG Fc or anti-His-Tag antibody and HRP-streptavidin, TMB; the paper does not say for each pair which partner was coated. The note with it: both partners purified.

T1 sequence (Q9NZQ7 19-290): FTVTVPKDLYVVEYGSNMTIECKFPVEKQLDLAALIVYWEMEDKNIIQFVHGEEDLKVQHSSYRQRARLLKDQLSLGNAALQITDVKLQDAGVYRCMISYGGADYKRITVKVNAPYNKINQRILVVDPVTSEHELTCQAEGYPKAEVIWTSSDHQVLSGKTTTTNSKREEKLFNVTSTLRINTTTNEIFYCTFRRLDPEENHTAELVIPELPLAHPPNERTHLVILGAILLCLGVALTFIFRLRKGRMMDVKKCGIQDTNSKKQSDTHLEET

B1: durvalumab-based anti-hPD-L1 IgG4 antibody C5 (antibody, V domains shown)
VH: EVQLVESGGGLVQPGGSLRLSCAASGFTFSRYWMSWVRQAPGKGLEWVALISRDGSETYYVDSVKGRFTISRDNAKNSLYLQMNSLRAEDTAVYYCAREGGWFGELAFDYWGQGTLVTVSS
VL: IVLTQSPGTLSLSPGERATLSCKASEDIGTWLAWYQQKPGQAPRLLIYDASSRATGIPDRFSGSGSGTDFTLTISRLEPEDFAVYYCQQYGSLPWTFGQGTKVEIK
notes: IgG4 heavy chain; IgG4; recombinant human anti-PD-L1 antibody, previously modeled, durvalumab-based; also called C5 antibody; full C5 antibody; source: produced by Recepton, purified (MabSelect Sure, SEC); copies: 2 + 2
For the molecule B1, the binding result is listed as “binds”.

B2: C5M1B, C5 scFv with M1 attached to its C-terminus by a (GGGGS)4 linker (bispecific antibody, V domains shown)
VH: EVQLVESGGGLVQPGGSLRLSCAASGFTFSRYWMSWVRQAPGKGLEWVALISRDGSETYYVDSVKGRFTISRDNAKNSLYLQMNSLRAEDTAVYYCAREGGWFGELAFDYWGQGTLVTVSS
VL: IVLTQSPGTLSLSPGERATLSCKASEDIGTWLAWYQQKPGQAPRLLIYDASSRATGIPDRFSGSGSGTDFTLTISRLEPEDFAVYYCQQYGSLPWTFGQGTKVEIK
notes: linker printed as (GGGGS)4
On to B2, for which the binding result was “binds”.

B3: C5M1A, asymmetric knob-into-hole C5 IgG4 with one of the Fabs replaced by M1 (bispecific antibody, V domains shown)
VH: EVQLVESGGGLVQPGGSLRLSCAASGFTFSRYWMSWVRQAPGKGLEWVALISRDGSETYYVDSVKGRFTISRDNAKNSLYLQMNSLRAEDTAVYYCAREGGWFGELAFDYWGQGTLVTVSS
VL: IVLTQSPGTLSLSPGERATLSCKASEDIGTWLAWYQQKPGQAPRLLIYDASSRATGIPDRFSGSGSGTDFTLTISRLEPEDFAVYYCQQYGSLPWTFGQGTKVEIK
notes: it replaces one Fab; human IgG4 constant region, hinge and Fc as in the heavy chain of m7, with knob-into-hole mutations; copies: 1 + 1 + 1
For B3, the binding result is given as “binds”.
